Data as given in the supplement of paper PMC7125110.
± gives the standard error. For some assays here: Fewer inactive variants are shown than the library holds.

B1: glmS ribozyme (parent)
chain: AUAAAAGCGCCAGAACUACAGAAAUGUAGUUGACGAGGAGGAGGUUUAUCGAAUUUUCGGCGGAUGCCUCCAAA

Experiments:
Conditions in all cases: with glucosamine-6-phosphate
glucosamine-6-phosphate [1] = variants of: B1; test: kcat; higher = faster cleavage; RNA array
Procedure, shortened: (§1)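 Sequenced MiSeq chips were the platform: E. coli RNA polymerase transcribed barcoded ribozyme variants on them in situ, and a hybridised Cy3 probe tracked these at 37 °C. After glucosamine-6-phosphate (40 μM to 10 mM) in HEPES/KCl/Mg(OAc)2 buffer was flowed in, tiles were imaged over ~14 h. Signals normalised to baseline and to non-cleaving reference variants were reduced to per-tile medians and fit to one- or two-exponential decays to obtain kobs. kcat and KM were derived through weighted Michaelis–Menten fits across concentrations.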

glucosamine-6-phosphate [2] = variants of: B1; test: KM; higher = weaker cofactor use; RNA array
Procedure, shortened: as §1

glucosamine-6-phosphate [3] = variants of: B1; test: self-cleavage kobs at 640 uM GlcN6P; higher = faster cleavage; RNA array
Procedure, shortened: as §1

glucosamine-6-phosphate [4] = variants of: B1; test: self-cleavage kobs at 2500 uM GlcN6P; higher = faster cleavage; RNA array
Procedure, shortened: as §1

glucosamine-6-phosphate [5] = variants of: B1; test: self-cleavage kobs at 10000 uM GlcN6P; higher = faster cleavage; RNA array
Procedure, shortened: as §1

glucosamine-6-phosphate [6] = variants of: B1; test: self-cleavage kobs at 40 uM GlcN6P; higher = faster cleavage; RNA array
Procedure, shortened: as §1

glucosamine-6-phosphate [7] = variants of: B1; test: self-cleavage kobs at 160 uM GlcN6P; higher = faster cleavage; RNA array
Procedure, shortened: as §1

Row | Variant | kcat (glucosamine-6-phosphate [1]) [s⁻¹] | KM (glucosamine-6-phosphate [2]) [µM] | self-cleavage kobs at 640 uM GlcN6P (glucosamine-6-phosphate [3]) [s⁻¹] | self-cleavage kobs at 2500 uM GlcN6P (glucosamine-6-phosphate [4]) [s⁻¹] | self-cleavage kobs at 10000 uM GlcN6P (glucosamine-6-phosphate [5]) [s⁻¹] | self-cleavage kobs at 40 uM GlcN6P (glucosamine-6-phosphate [6]) [s⁻¹] | self-cleavage kobs at 160 uM GlcN6P (glucosamine-6-phosphate [7]) [s⁻¹]
1 | A15C G37A | 0.000686 ± 9.5e-05 | 4650 ± 1200 | 9.31e-05 ± 1.5e-05 | 0.000226 ± 3.7e-05 | 0.000471 ± 4.5e-05 | – | –
2 | A42C U57G | < 1e-05 | – | – | – | – | < 1e-05 | < 1e-05
3 | A42C C50A | < 1e-05 | – | – | < 1e-05 | < 1e-05 | < 1e-05 | –
4 | G32U C67U | 0.00034 ± 4.6e-05 | 1790 ± 580 | 0.000104 ± 1.3e-05 | 0.000166 ± 2.2e-05 | 0.000303 ± 2.5e-05 | – | –
5 | G66U C70G | 0.000127 ± 1.1e-05 | 550 ± 180 | 5.98e-05 ± 1.4e-05 | 0.000112 ± 1.7e-05 | 0.000117 ± 1.9e-05 | – | 3.86e-05 ± 1.7e-05
6 | C67A C70G | 3.41e-05 ± 3.9e-06 | – | 4.26e-05 ± 9.9e-06 | 2.92e-05 ± 7.8e-06 | 3.34e-05 ± 5.8e-06 | – | –
7 | G51U C70G | 3.09e-05 ± 1.2e-05 | – | 5.38e-05 ± 1.4e-05 | 4.11e-05 ± 1e-05 | – | – | –
8 | C58G C70U | 5.2e-05 ± 3.9e-06 | 230 ± 110 | 3.07e-05 ± 1.1e-05 | 5.21e-05 ± 7e-06 | 4.8e-05 ± 7.6e-06 | – | 2.43e-05 ± 1.1e-05
9 | C58A C61G | 1.62e-05 ± 5.8e-06 | – | – | – | – | – | –
10 | C58A C61U | < 1e-05 | – | – | – | – | – | –
11 | U45A U47C | 0.00985 ± 0.0035 | 2660 ± 1300 | 0.00165 ± 0.00043 | 0.0091 ± 0.0044 | 0.00776 ± 0.0024 | 0.00017 ± 4.6e-05 | –
12 | A52U C67G C70G | 2.5e-05 ± 7.5e-06 | – | – | – | – | – | –
13 | U30A A52U C70U | 7.84e-05 ± 3.9e-06 | 89.4 ± 24 | 7.62e-05 ± 1.7e-05 | 7.31e-05 ± 1.4e-05 | 7.39e-05 ± 2.7e-05 | – | 4.9e-05 ± 1.3e-05
14 | C10G C68G | 5.21e-05 ± 1.5e-05 | – | 4.42e-05 ± 1.8e-05 | 4.78e-05 ± 1.7e-05 | – | – | –
15 | A48U C70U | 0.000821 ± 0.00021 | 2160 ± 900 | 0.000334 ± 5.5e-05 | 0.000416 ± 6.2e-05 | 0.000671 ± 9.3e-05 | – | 5.07e-05 ± 8e-06
16 | A12U C67G C68G | 4.76e-05 ± 1.4e-05 | – | 6.79e-05 ± 1.9e-05 | 4.47e-05 ± 1.5e-05 | – | – | 7.57e-05 ± 3.2e-05
17 | G51U U54A | < 1e-05 | – | – | – | – | – | –
18 | A6U G29U | 5.83e-05 ± 3.7e-06 | 5560 ± 690 | – | – | 3.74e-05 ± 1.7e-05 | < 1e-05 | –
19 | C11U A33C | 1.8e-05 ± 2.7e-06 | 8710 ± 2600 | – | – | – | – | –
